Experimental data reported in the Human Domainome abundance scans (Beltran et al. 2025).

B1: Far upstream element-binding protein 1, residues 184 to 257; numbered along this chain, Q96AE4 (parent)
chain: GNAVQEIMIPASKAGLVIGKGGETIKQLQERAGVKMVMIQDGPQNTGADKPLRITGDPYKVQQAKEMVLELIRD
B2: Tudor domain-containing protein 3, residues 554 to 611; numbered along this chain, Q9H7E2 (parent)
chain: KMWKPGDECFALYWEDNKFYRAEVEALHSSGMTAVVKFIDYGNYEEVLLSNIKPIQTE

Variants of: B1
Test: abundance fitness (aPCA) (normalised: wild type 0, dead -1); higher = more abundant; growth selection in yeast, the domain comes from the species named
Details: Homo sapiens

Abundance fitness of substitutions, site by site:
Q62: V -0.049; W -0.114; Y -0.04
Q63: A -0.022; C 0.013; D -0.116; E 0.006; F -0.116; G -0.058; H -0.069; I -0.025; K 0; M -0.026; N -0.107; P -0.408; R -0.026; S -0.061; T -0.039; V -0.038; Y -0.027
A64: C -0.118; D -0.725; E -0.694; F -0.754; G -0.051; H -0.967; I -0.561; K -0.758; L -0.839; M -0.469; N -0.772; P -0.784; Q -0.695; R -0.853; S -0.228; T -0.296; V -0.262; W -1.2; Y -0.98
K65: A -0.064; C -0.097; D -0.577; F -0.241; G -0.086; H -0.056; I -0.049; L -0.211; M -0.07; N -0.129; P -0.709; R -0.012; S -0.102; T -0.057; V -0.037; W -0.439; Y -0.11
E66: A -0.091; C -0.106; D -0.002; F -0.18; G -0.046; H -0.165; I -0.224; K -0.007; L -0.092; M -0.08; N -0.048; P -0.476; Q -0.07; R -0.081; T -0.03; V -0.072; W -0.167
M67: A -0.03; C -0.187; D -0.075; E -0.082; F -0.117; G -0.177; H -0.078; I -0.128; K -0.111; L -0.053; N -0.073; P -0.455; Q -0.067; R -0.096; S -0.078; T -0.116; V -0.126; W -0.124; Y -0.088
V68: A -0.221; D -0.359; E -0.427; F -0.658; G -0.48; H -0.495; I -0.023; K -0.41; L -0.154; M -0.156; N -0.385; P -0.428; Q -0.441; R -0.562; S -0.425; T -0.143; W -0.963; Y -0.753
L69: A -0.01; D 0.016; E 0.011; F -0.077; G -0.018; H -0.073; I -0.102; K -0.028; M 0.068; N 0.019; P -0.346; Q 0.003; R 0.011; S -0.015; T -0.021; V -0.082; Y 0.008
E70: A -0.04; C -0.105; D 0.046; F -0.314; G -0.044; H -0.081; I -0.432; K 0.002; L -0.209; M -0.152; N -0.127; P -0.308; Q -0.072; R -0.063; S -0.106; T -0.056; V -0.339; W -0.239; Y -0.196
L71: A -0.1; C -0.048; D -0.389; E -0.089; F -0.078; G -0.282; H -0.102; I 0.025; K -0.001; M -0.031; N -0.242; P -0.481; Q -0.082; R -0.087; S -0.218; T -0.066; V -0.01; W -0.189; Y -0.225
I72: A -0.173; C 0.045; D -0.408; E -0.295; F -0.136; G -0.329; H -0.524; K -0.405; L 0.01; M -0.009; N -0.398; P -0.394; Q -0.24; R -0.498; S -0.301; T -0.072; V 0.011; W -0.353; Y -0.276
R73: A 0.111; C -0.002; D 0.092; E 0.088; F -0.197; H 0.031; I -0.15; K 0.015; L -0.1; M 0.001; N -0.004; P -0.208; Q 0.048; S 0.044; T 0.043; V -0.038; W -0.033
D74: A -0.089; C -0.128; E -0.058; F -0.311; G 0.008; H -0.167; K -0.175; L -0.277; M -0.193; N -0.114; P -0.016; Q -0.059; R -0.089; S -0.111; T -0.076; W -0.327; Y -0.197

Variants of: B2
Test: as above
Details: Homo sapiens

Abundance fitness, by site and new letter:
K1: A -0.218; C -0.261; D -0.182; E -0.143; G -0.138; H -0.003; I 0.134; L -0.187; N 0.085; Q -0.657; R -0.326; S -0.283; T -0.278; V -0.225; W -0.336; Y -0.158
M2: A -0.192; C -0.286; E -0.19; F -0.194; G -0.052; H -0.13; I -0.201; K -0.36; L -0.098; N -0.169; P -0.36; Q -0.134; R -0.254; S -0.009; T -0.23; V -0.164; W -0.657; Y -0.15
W3: A -0.634; C -0.509; D -1.31; E -0.866; F 0.031; G -0.856; H -0.842; I -0.059; K -1.01; M -0.079; N -0.737; P -0.314; Q -0.721; R -1.01; S -0.885; T -0.615; V -0.053; Y -0.312
K4: A -0.092; C -0.169; D -0.678; E -0.2; F -0.221; G -0.486; H -0.335; I -0.415; L -0.287; M -0.169; N -0.233; P -0.912; Q -0.158; R -0.232; S -0.149; T -0.059; V -0.244; W -0.543; Y -0.17
P5: A -0.017; C -0.201; D -0.763; E -0.187; F -0.529; G -0.61; H -0.133; I -0.141; L -0.261; M -0.401; N 0.03; Q -0.061; R -0.123; S -0.113; T -0.024; V -0.034; W -0.926; Y -0.447
G6: A -0.785; C -0.86; D -0.874; E -0.845; F -0.828; H -0.502; I -0.941; K -0.416; L -0.836; M -0.922; N -0.798; P -0.985; Q -0.832; R -0.431; S -0.776; T -0.919; V -0.928; W -0.545; Y -0.971
D7: A -0.396; C -0.573; F -0.677; G -0.899; H -0.764; I -0.826; K -0.887; L -0.731
